Assay results as given in patent US20230227512A1.

Legend:
[1] = target: BG505 SOSIP.664 trimer+sCD4 complex (HIV-1 strain BG505; human) (UniProt P01730); experiment: SPR read-out on captured 3074 IgG of trimer incubated with sCD4
[2] = target: BG505.SOSIP.664.201C-433C HIV-1 Env ectodomain trimer (HIV-1 strain BG505); experiment: SPR, single-cycle kinetics

Substance	t1/2 of CD4-induced appearance of binding [1] [h]	fold faster off-rate relative to parent SOSIP.664 [2] [fold]	fold reduction in KD (affinity) relative to SOSIP.664 [2] [fold]
3074 antibody	4.2	–	–
soluble CD4 (sCD4) (from UniProt P01730 26-208) (receptor)	–	10	10
